Results taken from patent US20230322893A1 (BPGENE, published 2023).

B1: SV4 (designed binder)
chain: MEEELQIIQPDLSVSVAAGESAILHCTITSLFPVGPIQWFRGAGPARVLIYNQRQGPFPRVTTVSETTKRENMDFSISISNITPADAGTYYCIKFRKGSPDTEFLSGAGTELSVRAKPS
notes: also called SV4 protein
B2: SV4-DSPE (other)
chain: B1 chain
notes: also called DSPE-SV4; DSPE-PEG2000-SV4
B3: SV4-iLP (other)
chain: B1 chain
notes: also called LPD-SV4; SV4-conjugated iLP

These binders were tested against recombinant CD47 protein (UniProt Q08722 19-139) (assay: SPR; recombinant CD47 coupled to CM5 chip (250 RU); 1:1 model, global fit).
Sequence of recombinant CD47 protein (Q08722 19-139 limits assumed): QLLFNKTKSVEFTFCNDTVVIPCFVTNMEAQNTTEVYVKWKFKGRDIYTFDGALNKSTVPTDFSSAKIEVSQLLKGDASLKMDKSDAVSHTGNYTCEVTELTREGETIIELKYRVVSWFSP
Experimental: Specifically, the recombinant CD47 protein was conjugated to the surface of the CM5 chip by a target SPR reaction of 250 RU through an EDC-NHS reaction to be used, and for HBS-P, the sensogram obtained through a process of association for 3 minutes and dissociation for 10 minutes at a flow rate of 30 µL/minutes was analyzed with the BiaEvaluation software using a 1:1 binding model and global fitting.

Q: For B1, which Kd is on record?
A: 1.67 nM

Q: What about the koff of the same binder?
A: 0.000275 s⁻¹

Q: And the kon?
A: 164000 M⁻¹ s⁻¹

Q: For B2, which Kd is on record?
A: 1.13 nM

Q: And the koff?
A: 0.000256 s⁻¹

Q: What about the kon of the same binder?
A: 227000 M⁻¹ s⁻¹

Q: How did the Kd turn out when B3 was run?
A: 1.27 nM

Q: And the koff?
A: 0.000395 s⁻¹

Q: And the kon?
A: 312000 M⁻¹ s⁻¹
